Data as given in patent US20060015952A1, “Screening assays and methods of tumor treatment” (GENENTECH, INC., priority 2003, published 2006).

What was measured:
[1] = system: TGF-beta extracellular domain (ECD); experiment: Binding ELISA of chimeric and humanized 2G7 versions; settings: for binding to TGF-beta of CDR mutants of hu2G7 Version 5 IgG: germline revertants / CDR H2 mutant
Method: DNA sequencing of the chimeric clone allowed identification of the CDR residues (Kabat et al., supra). Using oligonucleotide site-directed mutagenesis, all six of these CDR regions were introduced into a complete human framework (VL kappa subgroup I and VH subgroup III) contained on plasmid VX4 as previously described (Presta et al., Cancer Research, 57: 4593-4599 (1997)). Protein from the resultant “CDR-swap” was expressed and purified as above. Binding studies were performed to compare the two versions. Briefly, a NUNC MAXISORP™ plate was coated with 1 microgram per ml of TGF-beta extracellular domain (ECD; produced as described in WO 90/14357) in 50 mM of carbonate buffer, pH 9.6, overnight at 4° C., and then blocked with ELISA diluent (0.5% BSA, 0.05% POLYSORBATE™ 20, PBS) at room temperature for 1 hour. Serial dilutions of samples in ELISA diluent were incubated on the plates for 2 hours. After washing, bound Fab fragment was detected with biotinylated murine anti-human kappa antibody (ICN 634771) followed by streptavidin-conjugated horseradish peroxidase (Sigma) and using 3,3′,5,5′-tetramethyl benzidine (Kirkegaard & Perry Laboratories, Gaithersburg, Md.) as substrate. Absorbance was read at 450 nm.

TGF-beta = experiment: Mouse messangial cell proliferation assay; assay type: cell-based; settings: antibody 20 μg/ml; TGF-beta at 1 ng/ml level; 48 hours
Method: A mouse messangial cell proliferation assay was used to test a control antibody and several humanized antibodies (V5H.V5L, V5H.gIL2, H2NI.V5L, V5H.gIL1gIL2, and H2N1.gIL gIL2). The protocol is as follows:
On day 1: Mouse messangial cells were plated on a 96-well plate in Media (a 3:1 mixture of Dulbecco's modified Eagle's medium and Ham's F12 medium-95%-fetal bovine serum-5%-supplemented with 14 mM HEPES buffer) and grown overnight.
On day 2: TGF-beta with three different concentrations (100 ng, 10 ng and 1 ng) and five different types of humanized TGF antibody (20 μg/ml) were diluted in serum-free Media and added to the cells. A mouse TGF antibody was used as a control (2G7).
On day 4: After 48 hours incubation, 20 μl of reaction buffer (CELLTITER 96® AQUEOUS ONE SOLUTION REAGENT™ containing a tetrazolium compound 3-(4,5-dimethylthiazol-2-yl)-5-(3-carboxymethoxyphenyl)-2-(4-sulfophenyl)-2H-tetrazolium, inner salt, and an electron coupling reagent (phenazine ethosulfate) (Promega Inc. Cat number G3580)) was added to each well of the plate and allowed to incubate for 2 hours. The absorbance (OD) was measured at 490 nm.

TGF-beta1 through -beta3 = experiment: 3T3 cell proliferation assay, neutralization of TGF-betas; assay type: cell-based, mouse; settings: 3T3 cells stimulated with one of three TGF-betas
Method: Various humanized antibodies were tested for their activity in neutralizing various TGF-betas versus 2G7 using the 3T3 cell line from fibroblasts of disaggregated Swiss mouse embryos stimulated with one of three TGF-betas in vitro and then their proliferation was measured as activity.

Molecule	binding to TGF-beta compared to chimeric 2G7 Fab fragment ([1]; humanized versions (FR mutants))	blocking of cell inhibition induced by TGF-beta (TGF-beta)	activity in neutralizing TGF-betas versus 2G7 (TGF-beta1 through -beta3)	binding to TGF-beta of CDR mutants of hu2G7 Version 5 IgG [1]
Version 5: humanized 2G7, ArgH71Ala, AlaH49Gly, PheH67Ala; SEQ ID Nos. 3 and 4 (antibody, V domains shown, Sequence is synthesized) VL: DIQMTQSPSSLSASVGDRVTITCRASQSVLYSSNQKNYLAWYQQKPGKAPKLLIYWASTRESGVPSRFSGSGSGTDFTLTISSLQPEDFATYYCHQYLSSDTFGQGTKVEIKRTVA VH: EVQLVESGGGLVQPGGSLRLSCAASGYAFTNYLIEWVRQAPGKGLEWVGVNNPGSGGSNYNEKFKGRATISADNSKNTLYLQMNSLRAEDTAVYYCARSGGFYFDYWGQGTLVTVSSASTKGPS	binding restored to that of the original chimeric 2G7 Fab fragment	blocked cell inhibition similarly to the control	–	–
V5H.g1L2: Same as Version 5 except the CDR L2 is reverted to human germline kappa locus sequence YASSLQS (antibody, V domains shown) VH: EVQLVESGGGLVQPGGSLRLSCAASGYAFTNYLIEWVRQAPGKGLEWVGVNNPGSGGSNYNEKFKGRATISADNSKNTLYLQMNSLRAEDTAVYYCARSGGFYFDYWGQGTLVTVSS VL: DIQMTQSPSSLSASVGDRVTITCRASQSVLYSSNQKNYLAWYQQKPGKAPKLLIYYASSLQSGVPSRFSGSGSGTDFTLTISSLQPEDFATYYCHQYLSSDTFGQGTKVEIK	–	–	comparable activity, with V5H.gIL2 being the least effective	bound to TGF-beta as well as V5H.V5L
V5H.g1L1glL2: Same as Version 5 except CDR L1 and CDR L2 reverted to human germline kappa locus sequences (antibody, V domains shown) VH: EVQLVESGGGLVQPGGSLRLSCAASGYAFTNYLIEWVRQAPGKGLEWVGVNNPGSGGSNYNEKFKGRATISADNSKNTLYLQMNSLRAEDTAVYYCARSGGFYFDYWGQGTLVTVSS VL: DIQMTQSPSSLSASVGDRVTITCRASQGISSYLAWYQQKPGKAPKLLIYYASSLQSGVPSRFSGSGSGTDFTLTISSLQPEDFATYYCHQYLSSDTFGQGTKVEIK	–	–	–	did not bind as well as the chimera
